Data from article PMC3305072.

Legend:
[1] = SEC; Superdex 200 GL 10/300, PBS pH 7.5, protein injected at 50 µM, 0.5 mL/min, A280; percent of monomeric, dimeric and high molecular weight species
[2] = SEC; Superdex 200 GL 10/300, PBS pH 7.5, protein injected at 120 µM, 0.5 mL/min, A280; percent of monomeric, dimeric and high molecular weight species
[3] = SEC; Superdex 200 GL 10/300, PBS pH 7.5, protein injected at 10 µM, 0.5 mL/min, A280; percent of monomeric, dimeric and high molecular weight species
[4] = biological target: BlaP(Gln)79 (Bacillus licheniformis 749/C); experiment: SEC; Superdex 200 GL 10/300, PBS pH 7.5, protein injected at 120 µM, 0.5 mL/min, A280; percent of monomeric, dimeric and high molecular weight species

Row | stoichiometry N [4] | Substance | % dimeric species (SEC) [1] [%] | % dimeric species (SEC) [2] [%] | % dimeric species (SEC) [3] [%] | % high molecular weight oligomeric species (SEC) [3] [%] | % high molecular weight oligomeric species (SEC) [1] [%] | % high molecular weight oligomeric species (SEC) [2] [%]
1 | – | BlaP(Gln)23 | 0.6 | 0.7 | – | – | – | –
2 | – | BlaP(Gln)30 | 0.4 | 0.5 | – | – | – | –
3 | – | BlaP(Gln)55 | 1.1 | 1.4 | – | – | – | –
4 | – | BlaP(Gln)79 | 1.1 | 1.2 | 0.9 | 1.8 | 2.5 | 3.5
5 | > 15 | BlaP(Gln)79 (enzyme) | – | – | – | – | – | –
6 | – | β-lactamase from Bacillus licheniformis 749/C (BlaP) | 4.9 | 5.6 | – | – | – | –
